Here are results for 46 variants from the Human Domainome abundance scans (Beltran et al. 2025).

± gives the uncertainty stated by the source.

Sequences and labels used below:
B1: Nucleosome-remodeling factor subunit BPTF, residues 2862 to 2918; numbered along this chain, Q12830 (parent)
chain: TKKDTKLYCICKTPYDESKFYIGCDRCQNWYHGRCVGILQSEAELIDEYVCPQCQST

The variants in the data set derive from B1. The experiment in a line: abundance fitness (aPCA) (normalised: wild type 0, dead -1); higher = more abundant; growth selection in yeast, the domain comes from the species named. The settings on record: Homo sapiens.
With TKKDTKLYCICKTPYDESKFYIGCDRCQNWYHGRCVPILQSEAELIDEYVCPQCQST [G37P], the abundance fitness was -0.99 ± 0.15.

For the variant TKKDTKLYCICKTPYDESKFYIGCDRCQNWYHGRCVLILQSEAELIDEYVCPQCQST [G37L], the abundance fitness is -0.411 ± 0.08.

For the variant TKKDTKLYCICKTPYDESKFYIGCDRCQNWYHGRCVNILQSEAELIDEYVCPQCQST [G37N], the abundance fitness is -0.158 ± 0.18.

Regarding TKKDTKLYCICKTPYDESKFYIGCDRCQNWYHGRCVRILQSEAELIDEYVCPQCQST [G37R], the abundance fitness was -0.207 ± 0.073.

As to TKKDTKLYCICKTPYDESKFYIGCDRCQNWYHGRCVQILQSEAELIDEYVCPQCQST [G37Q], the abundance fitness is -0.216 ± 0.15.

With TKKDTKLYCICKTPYDESKFYIGCDRCQNWYHGRCVFILQSEAELIDEYVCPQCQST [G37F], the abundance fitness is -0.418 ± 0.11.

For the variant TKKDTKLYCICKTPYDESKFYIGCDRCQNWYHGRCVSILQSEAELIDEYVCPQCQST [G37S], the abundance fitness is -0.074 ± 0.07.

For the variant TKKDTKLYCICKTPYDESKFYIGCDRCQNWYHGRCVMILQSEAELIDEYVCPQCQST [G37M], the abundance fitness was -0.359 ± 0.12.

With TKKDTKLYCICKTPYDESKFYIGCDRCQNWYHGRCVCILQSEAELIDEYVCPQCQST [G37C], the abundance fitness is -0.379 ± 0.092.

As to TKKDTKLYCICKTPYDESKFYIGCDRCQNWYHGRCVHILQSEAELIDEYVCPQCQST [G37H], the abundance fitness is -0.157 ± 0.13.

Turning to TKKDTKLYCICKTPYDESKFYIGCDRCQNWYHGRCVYILQSEAELIDEYVCPQCQST [G37Y], the abundance fitness was -0.418 ± 0.12.

Consider TKKDTKLYCICKTPYDESKFYIGCDRCQNWYHGRCVEILQSEAELIDEYVCPQCQST [G37E], for which the abundance fitness was -0.23 ± 0.1.

As to TKKDTKLYCICKTPYDESKFYIGCDRCQNWYHGRCVWILQSEAELIDEYVCPQCQST [G37W], the abundance fitness is -0.681 ± 0.13.

Take TKKDTKLYCICKTPYDESKFYIGCDRCQNWYHGRCVAILQSEAELIDEYVCPQCQST [G37A]: the abundance fitness was -0.277 ± 0.082.

Regarding TKKDTKLYCICKTPYDESKFYIGCDRCQNWYHGRCVIILQSEAELIDEYVCPQCQST [G37I], the abundance fitness is -0.882 ± 0.16.

On to TKKDTKLYCICKTPYDESKFYIGCDRCQNWYHGRCVKILQSEAELIDEYVCPQCQST [G37K], for which the abundance fitness was -0.009 ± 0.1.

Consider TKKDTKLYCICKTPYDESKFYIGCDRCQNWYHGDCVGILQSEAELIDEYVCPQCQST [R34D], for which the abundance fitness was found to be 0.105 ± 0.1.

As for TKKDTKLYCICKTPYDESKFYIGCDRCQNWYHGECVGILQSEAELIDEYVCPQCQST [R34E], the abundance fitness was found to be 0.005 ± 0.14.

As for TKKDTKLYCICKTPYDESKFYIGCDRCQNWYHGTCVGILQSEAELIDEYVCPQCQST [R34T], the abundance fitness is -0.065 ± 0.078.

As for TKKDTKLYCICKTPYDESKFYIGCDRCQNWYHGWCVGILQSEAELIDEYVCPQCQST [R34W], the abundance fitness was -0.363 ± 0.12.

Consider TKKDTKLYCICKTPYDESKFYIGCDRCQNWYHGPCVGILQSEAELIDEYVCPQCQST [R34P], for which the abundance fitness was -0.144 ± 0.075.

As to TKKDTKLYCICKTPYDESKFYIGCDRCQNWYHGICVGILQSEAELIDEYVCPQCQST [R34I], the abundance fitness is -0.164 ± 0.075.

As for TKKDTKLYCICKTPYDESKFYIGCDRCQNWYHGQCVGILQSEAELIDEYVCPQCQST [R34Q], the abundance fitness turned out to be 0.01 ± 0.097.

Take TKKDTKLYCICKTPYDESKFYIGCDRCQNWYHGHCVGILQSEAELIDEYVCPQCQST [R34H]: the abundance fitness was 0.035 ± 0.073.

As to TKKDTKLYCICKTPYDESKFYIGCDRCQNWYHGNCVGILQSEAELIDEYVCPQCQST [R34N], the abundance fitness stood at 0.075 ± 0.079.

Consider TKKDTKLYCICKTPYDESKFYIGCDRCQNWYHGKCVGILQSEAELIDEYVCPQCQST [R34K], for which the abundance fitness came to 0.109 ± 0.1.

With TKKDTKLYCICKTPYDESKFYIGCDRCQNWYHGACVGILQSEAELIDEYVCPQCQST [R34A], the abundance fitness amounted to 0.026 ± 0.084.

For the variant TKKDTKLYCICKTPYDESKFYIGCDRCQNWYHGYCVGILQSEAELIDEYVCPQCQST [R34Y], the abundance fitness is -0.107 ± 0.071.

As to TKKDTKLYCICKTPYDESKFYIGCDRCQNWYHGMCVGILQSEAELIDEYVCPQCQST [R34M], the abundance fitness is -0.251 ± 0.11.

Regarding TKKDTKLYCICKTPYDESKFYIGCDRCQNWYHGFCVGILQSEAELIDEYVCPQCQST [R34F], the abundance fitness is -0.258 ± 0.085.

As for TKKDTKLYCICKTPYDESKFYIGCDRCQNWYHGSCVGILQSEAELIDEYVCPQCQST [R34S], the abundance fitness stood at 0.051 ± 0.065.

With TKKDTKLYCICKTPYDESKFYIGCDRCQNWYSGRCVGILQSEAELIDEYVCPQCQST [H32S], the abundance fitness was -0.797 ± 0.094.

For the variant TKKDTKLYCICKTPYDESKFYIGCDRCQNWYPGRCVGILQSEAELIDEYVCPQCQST [H32P], the abundance fitness is -0.95 ± 0.14.

As to TKKDTKLYCICKTPYDESKFYIGCDRCQNWYNGRCVGILQSEAELIDEYVCPQCQST [H32N], the abundance fitness is -0.879 ± 0.17.

As to TKKDTKLYCICKTPYDESKFYIGCDRCQNWYYGRCVGILQSEAELIDEYVCPQCQST [H32Y], the abundance fitness was -1 ± 0.17.

Consider TKKDTKLYCICKTPYDESKFYIGCDRCQNWYQGRCVGILQSEAELIDEYVCPQCQST [H32Q], for which the abundance fitness is -0.898 ± 0.13.

In the case of TKKDTKLYCICKTPYDESKFYIGCDRCQNWYWGRCVGILQSEAELIDEYVCPQCQST [H32W], the abundance fitness was -1.1 ± 0.24.

With TKKDTKLYCICKTPYDESKFYIGCDRCQNWYTGRCVGILQSEAELIDEYVCPQCQST [H32T], the abundance fitness is -1.1 ± 0.13.

For TKKDTKLYCICKTPYDESKFYIGCDRCQNWYRGRCVGILQSEAELIDEYVCPQCQST [H32R], the abundance fitness was -0.808 ± 0.11.

Take TKKDTKLYCICKTPYDESKFYIGCDRCQNWYHARCVGILQSEAELIDEYVCPQCQST [G33A]: the abundance fitness is -0.007 ± 0.064.

On to TKKDTKLYCICKTPYDESKFYIGCDRCQNWYHYRCVGILQSEAELIDEYVCPQCQST [G33Y], for which the abundance fitness amounted to 0.053 ± 0.12.

For TKKDTKLYCICKTPYDESKFYIGCDRCQNWYHDRCVGILQSEAELIDEYVCPQCQST [G33D], the abundance fitness is -0.229 ± 0.098.

As to TKKDTKLYCICKTPYDESKFYIGCDRCQNWYHWRCVGILQSEAELIDEYVCPQCQST [G33W], the abundance fitness was -0.445 ± 0.097.

Turning to TKKDTKLYCICKTPYDESKFYIGCDRCQNWYHFRCVGILQSEAELIDEYVCPQCQST [G33F], the abundance fitness was -0.192 ± 0.082.

With TKKDTKLYCICKTPYDESKFYIGCDRCQNWYHQRCVGILQSEAELIDEYVCPQCQST [G33Q], the abundance fitness is 0 ± 0.093.

With TKKDTKLYCICKTPYDESKFYIGCDRCQNWYHPRCVGILQSEAELIDEYVCPQCQST [G33P], the abundance fitness came to 0.053 ± 0.075.
